In paper PMC10986471 (Microbiology Spectrum, 2024):

B1: CSW2-1353 (antibody, V domains shown)
VH: EVQLVESGGGLVQPKGSLKLSCAASGFNFNTYAMNWVRQAPGKGLEWVARIRSKSENYVIYYADSVKDRFTISRDDSQNMLYLQMNNLKTEDTAMYYCVMSYYGNYWFAYWGQGTLVTVSA
VL: DVVVTQTPLSLPVSLGDQASISCRSSQSLVHNNGNTYLHWYLQKPGQSPKLLIYKVSNRFSGVPDRFSGSGSGTDFTLKISRVEAEDLGVYFCSQSTHIPWTFGGGTKLEIK
notes: copies: 2 + 2
B2: CSW1-1805 (antibody, V domains shown)
VH: EVQLQQSGPELVKPGASLRISCRTSEYTFTENTMYWVKQSHGKSLEWIGGINPNNGDTIYNQQFKGKATLTVDKSSSTAYMELRSLTSEDSAVYYCARDSPVVPGDYWGQGTTLTVSS
VL: DIVMTQSPSSLPVSVGEKVTMRCKSSQSLLYSSNQKNYLAWYQQKSGQSPKLMIYWASTRECGVPDRFTGSGSGTDFTLTISNVKAEDLAVYYCQQYYRYPLTFGVGTKLELK
notes: copies: 2 + 2

How the values were obtained:
Experiment in all cases: ELISA
Settings in all cases: both partners purified
[1] = target: RBD of the Delta variant (B.1.617.2 lineage) (SARS-CoV-2 Delta (B.1.617.2), L452R | T478K)
[2] = target: RBD^B.1 (receptor-binding domain of Spike^B.1) (SARS-CoV-2 B.1 (RBD as Wuhan-Hu-1), UniProt P0DTC2)
[3] = target: RBD of the Alpha variant (B.1.1.7 lineage) (SARS-CoV-2 Alpha (B.1.1.7), N501Y)
[4] = target: RBD of the Gamma variant (P.1 lineage) (SARS-CoV-2 Gamma (P.1), K417T | E484K | N501Y)
[5] = target: RBD of the Beta variant (B.1.351 lineage) (SARS-CoV-2 Beta (B.1.351), K417N | E484K | N501Y)

Binder	Kd [1]	Kd [2]	Kd [3]	Kd [4]	Kd [5]
B1	114 pM	118 pM	152 pM	–	–
B2	262 pM	453 pM	452 pM	494 pM	482 pM
